Experiment: soluble on expression in E. coli; label from the status in PepcDB or PDB records

| Sequence | soluble on expression in E. coli |
| --- | --- |
| MRLPILIINFKAYGEAAGKRAVELAKAAERAARELGVNIVVAPNHLELGLVSQSVDIPVYAQGADVEAGGAHTAHVSLENIKEAGGSGVILNHSEAPLKLNDLARLVAKAKSLGLDVVVCAPDPRTSLAAAALGPHAVAVEPPELIGTGRAVSRYKPEAIVETVGLVSRHFPEVSVITGAGIESGDDVAAALRLGTRGVLLASAAVKAKDPYAKIVELAKPLSELR | soluble |
| MGSDKIHHHHHHKTEEHEKIEVLYETTLNLIHLLVEQGVIKQEVADEMIRKAEQKAKASQQQAREQGGQPPAGEPKKGEVRVTYVPEHIKKEIRDQLREEVVGQAKQERWGNVNATPEWLDRFTLEGDIRLREQADFFGDRNAPAANFQAIGQQIDNTTKDSHHRERIRMRLGINANVTRGVDLGLRLTTGNVNGPAVTGDLMGGSPTSTLQTLGTYNSKFSFVLDQAYLKLSPWDWLTVSGGRFPNPFFVGTVGNIYTGTIGKAPHTIPTAGVVHTDLLWDADVNFEGLAVNLHPWKKQERTIKPFLNAGIFPLQKINQSETVKAKDKWFYGAQAGIEWVPEGADTKIRLGAAYYDFENISGVRNPNFGDTLFNQTAPLFRQKGNSLFNIDNDGDPTTNLWALASDYKIANATLVADYSRFKPIHVIGTLDYARNVGYDQDRILARTGQDIKPEINAYQARLTVGYPVISERHQWQVLGFYRRSERDSMLDAFTDSNYLLGGTNHKGYTIQGLYGVAHNTWVGLRYMSYDNISGLPLSIDSVNLDLNARF | not soluble |
| GPGSMASSSTADDHSAVAGIVASSASVCGSRDAAASPPTALPKLGSAKQQRTERAFLFDRYPSRKIALRLAYHGHVHDGLAKQKETDNTVEGLVCDALRRLRLIPEDGPHNFGRCGRTDKGVSALGNAFSLTARASCTGDAEPQLPPLDYCSMLNNVLPSTIRIVGCALVDDAFDARFSCVHRTYRYYFFHRGLNLAAMQEAAAFFLGTHNFRNFCKMDVVNVSNFVRTVFSVGLHPSEALPELISYLEIRANSFLYHQIRCIMEVLFLVGRGLEVPSVVQTLLELGDRKPTYPLADGTPLILWDCGFDNVQWQMSHCAFHAMEQELQDIGTALLIRATSATAMRSQLFRWYTGTADVFRKDTSEKDASGEDRSRAVVRRDPELRRLDGWSITGCDWTDPGTAGQMKARKRDLLYYLRTEAKNGQPLPTTTSCEEKTSQTAETIASGALAPVNYVPLLQRETERTYEEEVRELSGKKRARYEVNEAKKAAAAAAHKEVVSED | not soluble |
| AIAKNFNDEEHNSQLTDEVLPEPEDARVIANILKAVGVESFDTRVVAQLVEFVYKYIGEVLELSKTFAQYAEREDIRQDDVKLAISSLLSKSFTQPPSRDVLLQLCRERNAVPLPVVDTYVGIQLPPKEFQLTTRNYQLKRKTTTESVASQELSEATGNISIGESSLQPNEEESNTMNT | soluble |
| MSKVKGDLEKSDKRPPSSMSTGSADSGVFSSGVHASSPSHSQGSSSQSGPPSPTTQLNSLLFETANLIAVNEQLRKEIAENKQIQTNQMRALRYSSNPVDQPFVANSISPHHGFPQRPPRGERRMQKPESYKTVICQAWLESKTCTFAENCRFAHGEEELRPAKLESRQNNKYKTKLCDKYTTTGLCPYGKRCLFIHPDNQPNAYIRADKLYEVSQRHALADLRDHVESQIMTGNTRNSYNQQPPPMGGLEMQSSPMKSSSDSSHMRSPMAQMNCETTRPHPSWPLESSSFFLPPEMSSINNNNLMSPFETPFPNGSTGIQPHFVTAKRRAAFPPVPSNFQQDDDNMSSIPGFDHLAEDMAKHLELW | not soluble |
| MGSDKIHHHHHHMFDDKMSGNAMNAEIELKLFFLPIYQESLINKLDSLDNAVPQGKRRLANGYFDTPDLQLRQWDMGLRVRGYDAHREQTIKTAGQVVGGIHSRPEYNVTIQADSPDLSLFPASIWPADADLAATQAQLTCIFHTDFYRRSWHVQIDNSVVEVALDIGEITANGQQEALCELEFELLSGDTEALLKLAMQVASVVPVRLGKASKAQRGYRLAGKAKPLDLTALEFLPLAEPRDSSTQDLTANCQILLETALERWQLLESMIAEESKPEACVALWWRMRACIRLLRMTLSQFELLNVTLSSRFMSIEKQLDFIEQAQALTALLGSQRGLFAKLGQHAQVKARLMAQLSEIHLTERLLSLWQQTEYGQLQLAIVEILLKVSAGEVDISNQPSLRQHADRAQQASWMAIVEVMPLNTVMTSANYLQVAAVLDESILVGHAYGSLYEAKSRDAFRAPWQDLVLGIKTLACYRAVQDASRELDIDLNEWLEDKQQSLLFAMESTRRNAMQQQAYW | not soluble |
| MKRIVILGGGFGGLYTALRVSQLPWETQQKPEIVLVDQSDRFLFSPLLYELLTGELQSWEIAPPFIELLEGTGIRFYQAVVSGIDIDQQRVHLQDGPEIPYDRLVLTLGGETPLDLVPGAISYAYPFRTIADTYRLEERLRVLEESDAEKIRVAIVGAGYSGVELACKLADRLGERGRFRLVEISDQILRTSPDFNREAAKKALDAKGVFIDLETKVESIGQNTISLEYKNQVDTIPVDLVIWTVGTRVTNVVKSLPFKQNQRGQITNTPTLQVLDHPDIFALGDLADCIDAEGQQVPATAQAAFQQADYAAWNIWASLTQRPLLPFRLEHHHHHH | soluble |
| MYVSSPTLTDKVSKMICQDILTGELKPGQKLVVAELKEKYNVGASPIREALVQLSWSKYVKLAPQKGCWVAPVCKHELNDLYESLRMTASFLLKKAIMTGDENWELDVLTSYHKLSRVNLDQGFCWREWEERHYHFLEALLEGANSHNLFTFFRDILNQIKRYHYFAMQVLGTNNQGHCNIDEQEMIMKLSLSKNSDDAVQFLDRYLLKSLQCVETAIDNPL | soluble |
| MGDFREVLFYHSETKHYPYRFARSLGYLDWENQPNPFRFWEGTERLDLPLLKDPSHPYEALYDYGLVNTEEFNVKSLSKFLELALGLSAWKAIPGSRWSVRMNPSSGNLHPTECYVIIPHLGGLQGVFHYNPFLHALEKRADIPYELSQKIKDFFGTEGFILILTSIPWRESWKYGERAYRYCLLDTGHAIGSVRFSANLKGWKVKYLNALSDKDLEILLGFDRVQWVEGEEEFPELALFVFPKEVQDVPRTIPESIINEFKKLNFYGRPNVLSKERVIWEIIYRAIKETEKPRTEEFRVIYGNPPILNLVPSYMSAEEVIRKRRSGMAYDGKTYILRELFIHALDKTLPRDNYSPFDVEIGLPFVNLFIFVNRVENLPKGLYCFVRNEELLKDLKEITSSEFLWEKVFEDFPLYLLKTGDFREVAGFVACAQDIASDSAFSLGMISLFEPVLREEPWFYRNLHWEAGLIGQVLYLEATAHNLNGTGIGCFFDDAMHEVLGISDKTFQDLYHFTFGKAVEDPRIQTIEPYYHLKRERR | not soluble |
| MRVLILGGTGNAAELAARVATIQGVDAITSLAGRTREPSVPLGDLRVGGFGGVAGLASYLQAMQIDLLIDATHPFASQISFNAADAAKEVGVPRLMLIRPPWEKGSGDRWMEVDNVEAAAASLQNQAHRVFLTVGRQELAAFAHLEEIWFLMRMIDPPVDDALVPPGMVLCDRGPFNLNNERQILIDRKIDTIVSKNSGGDATKPKIIAARELGVKVVMVNRPAIPPGEQVSDVEGALVWLLEKLHN | not soluble |
| MKIESSCPLPVKPGMTVAQATEACYQSELGADTYVEEFEGWVDIEALEPGDPGRKIVCCVEDGICITVEMKYMELPITDTFYGVDLNCQPGEGWMTSLERVARALEDKGLTVVKRDSYILLPDVFVAIEVGETIGWFDPAYWSREEFLEEAILA | not soluble |
| MSGIKPSVSKGESQAPQTRQLEASKPTVQGIIDILHDTISYVQVEKQSKTINFSIPHLQMIKEQLESIQLKDKNYKDLEKKFNEKQDEHLETIQKLDSTLSRQKLKYDDMRQALSVKIYTLENECSNLQDNYADLQNDFEVQIEKFKKLQNLKSIQNHENSKNVNPLTLDELTEQLKQFKEELSIDQKLKNIQLTCEGLQSAVGNFEMNSKKAKEIEILKMDIKKTQELYESRLLRAAQENKKLLRKNDTLKNYLDNQTAKIGELTAGNKTENRSPTPTLQGLIEILQKFSDDQKLEPECKMLQLHKEECRLILESLEVHDKKDQEIQWFQRQINDQKKRIANLGWSYENALEDKDALELKLEHQYEQMMELKKNFIPKNEISEDLAKTVRNFGKRLRNSRGNLKNAFKELEALKEVQEEEGSSDESSESSASDDLPDGDSSSEE | not soluble |
| MGSDKIHHHHHHMHMRVLIINTSERIGGAAIAANRLMEALKNNGIKTKMLVRDKQTDQISVVELKKSWWKVWQFIWERVVIWQANHFKKHNLFAVDIANTGTNITALPEFTQADVIHLHWINQGMLSLTDIRRIIQSGKPIVWTMHDMWPFTGICHYAGDCDKYATQCHNCPQLYKGSRKDIAYRTFQKKKKLFEGAQITFVACSRWLESLAKKSDLIKGQTITNIPNAINTNLFKPRDKKQAREKCHLPQDKKLLLFGSVKITDKRKGIDYLVSACKQIASSYPDFSKELGVVVFGNQAEQYASLFPFPIYPMNYVSNEKELVDIYNAVDLYVTPSLQDNLPNTIVEAMACGIPCIGFNVGGIPQMIDHLHNGYVAEYQSSKDLANGIHWALTEGEYESLSEEACRKAVSSYSESTIAKKYVEIYNKITGNHA | not soluble |
| MEQLNKMAPKDVRALIREGKINGPTAGMSGGYAQANLVVLKKDLAFDFLLFCQRNQKPCPVLDVTEAGSPVPSLLRRMLISRTDFPKYRIYRHGILTEEVSDITPYWEDDFVGFLIGCSFSFEQALINNGIAVRHIDEGTNVSMYKTNIDCFPVGAFHGQMVVSMRPVPERLAVRAAQVTSRFPAVHGGPIHIGNPGAIGIRDLGKPDFGDAVSIRDGEVPVFWACGVTPQAVAMNVKPEMVITHAPGHMLITDIRDESLAVLLEHHHHHH | soluble |
| MNKERQDLSGLEAVWLFGYGSLIYKVDFPYLERAAASIQGWSRRFWQGSHDHRGTPEAPGRVLTLTETPGEECTGMAYKVSPDVFEHLDHREKNGYLRFTTPMSFRDGSQQEGLVYIATEDNEAFLGEATASEIASHIARSSGPSGPNAEYLVKLQLALQQLGVNDPHITQVYEALMADRASLEHHHHHH | soluble |
| MKTVALIQARLGSSRLPCKMMLSLHGLPVIDWVVRRVRRATLVDEVVVATSTQPENDILEHHLSRQGVAVFRGPEDDVLERFRLAGAAYGAEQVVRVCADNPLIWGGAIDDLIRFWRAEGCDYAYNHIPRGNLYPDGLGAETLSFALLEEVAREATLPEHREHCLSFIWAHPERYTIRTFDPADPALHRPDLKLDMDTPADYRYLALMDIHPDITPEELVAMLPRTALEHHHHHH | soluble |
| MSLKMSDIAKMAGVSKAAVSFALNGKPGVSDETRKKIFKVIKDQGYEPLRKHKKGGVRKIASISLIIIQDRTGMMNRSYASLPFFDTLVSELSQNVSGAGGQMQIVNLDINHLHEGLNNEALQQSKASIVLATDLNQKQVQLINRKLRNVIFVDNYFEYIQADFVSIDNFQGAYRAGKFIVKKGYRKIGYVASNHAISNFLQRRSGFRKAMREANIQIPPEYVFSLNPTELRGSLPALFRQKNNWPEAIFCEDDYMALRLLNALTRQGIKVPQDIAVMGFDDISEDTMVIPELTTIHVPITQIVDQAINQLQCKVADTDWLPQKCFISTKLIERESEGHHHHHH | not soluble |
| MKNSKAILQVPGTMKIISAEIPVPKEDEVLIKVEYVGICGSDVHGFESGPFIPPKDPNQEIGLGHECAGTVVAVGSRVRKFKPGDRVNIEPGVPCGHCRYCLEGKYNICPDVDFMATQPNYRGALTHYLCHPESFTYKLPDNMDTMEGALVEPAAVGMHAAMLADVKPGKKIIILGAGCIGLMTLQACKCLGATEIAVVDVLEKRLAMAEQLGATVVINGAKEDTIARCQQFTEDMGADIVFETAGSAVTVKQAPYLVMRGGKIMIVGTVPGDSAINFLKINREVTIQTVFRYANRYPVTIEAISSGRFDVKSMVTHIYDYRDVQQAFEESVNNKRDIIKGVIKISD | soluble |
| MGSDKIHHHHHHMKNRIEDRRIKYTKMVIKQSLITLLKNKPINKVTVTEICNLADINRSTFYTHYSNPYDLLDSIEEELFEEVKSSLRDSEGETKIENTVNEIFKAIAKNKELFKIFFSSHRDYGFLIKFFGAVYNNSIDNFKSAFKSNNDAQLEYLYNYILTGNASISYKWIKNGLKESPEEMASLVNRLIVHTMSFIK | not soluble |

From the DeepSol protein solubility set
